Measurements published in PMC11626796, “Versican binds collagen via its G3 domain and regulates the organization and mechanics of collagenous matrices” (The Journal of Biological Chemistry, 2024).

Each binder was assayed against T1, Rat tail type I telo-collagen (rat, UniProt P02454 152-1207; P02466 86-1125) (assay: ELISA; solid-phase binding assay: proteoglycan or versican domain coated on a 96-well plate (0.25 ug/ml; 0.05-1 ug/ml in Fig. 2A) at 4 C overnight, blocked with 3% BSA in TTBS or casein; rat tail type I collagen 0.1-5 ug/ml in 1% BSA/PBS overnight at RT; detected with biotin-conjugated anti-collagen I antibody, streptavidin-HRP and TMB; Kd from Scatchard plot). Settings: both partners purified.
T1 construct: Type I collagen alpha-1 chain, rat tail telo-collagen; Type I collagen alpha-2 chain, rat tail telo-collagen; Extracted from tissue; Telopeptides are kept (telo-collagen); also called type I collagen; full-length collagen; source: bought: Corning (rat tail)
T1 sequence (P02454 152-1207, chain 1 of 2): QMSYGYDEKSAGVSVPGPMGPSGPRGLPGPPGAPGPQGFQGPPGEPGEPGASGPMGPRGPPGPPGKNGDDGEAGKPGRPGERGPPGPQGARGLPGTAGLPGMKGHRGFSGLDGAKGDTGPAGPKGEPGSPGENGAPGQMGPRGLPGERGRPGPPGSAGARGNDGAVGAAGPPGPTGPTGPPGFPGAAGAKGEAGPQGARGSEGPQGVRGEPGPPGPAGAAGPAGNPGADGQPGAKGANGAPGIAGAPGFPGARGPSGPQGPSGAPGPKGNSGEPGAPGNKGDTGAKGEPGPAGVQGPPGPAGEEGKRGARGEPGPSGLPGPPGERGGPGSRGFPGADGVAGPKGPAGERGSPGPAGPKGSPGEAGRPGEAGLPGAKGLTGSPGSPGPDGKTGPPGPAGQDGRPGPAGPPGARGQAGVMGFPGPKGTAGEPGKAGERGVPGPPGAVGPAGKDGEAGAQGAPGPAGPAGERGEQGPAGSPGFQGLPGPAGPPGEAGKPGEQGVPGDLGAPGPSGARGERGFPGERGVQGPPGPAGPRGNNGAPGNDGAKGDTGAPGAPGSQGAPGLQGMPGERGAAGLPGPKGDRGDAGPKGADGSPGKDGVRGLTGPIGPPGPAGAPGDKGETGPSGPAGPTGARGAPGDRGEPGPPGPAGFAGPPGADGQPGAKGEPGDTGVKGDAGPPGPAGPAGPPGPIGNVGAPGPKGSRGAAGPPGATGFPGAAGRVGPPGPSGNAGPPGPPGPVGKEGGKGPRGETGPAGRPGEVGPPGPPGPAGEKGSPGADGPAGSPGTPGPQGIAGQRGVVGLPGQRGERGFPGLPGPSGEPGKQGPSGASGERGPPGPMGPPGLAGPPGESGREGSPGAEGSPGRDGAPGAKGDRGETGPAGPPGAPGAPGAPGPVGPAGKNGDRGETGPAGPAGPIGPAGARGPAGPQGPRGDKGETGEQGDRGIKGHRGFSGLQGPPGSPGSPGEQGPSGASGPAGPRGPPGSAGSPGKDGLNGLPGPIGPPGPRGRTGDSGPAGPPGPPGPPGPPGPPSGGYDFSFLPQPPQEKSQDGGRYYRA
T1 sequence (P02466 86-1125, chain 2 of 2): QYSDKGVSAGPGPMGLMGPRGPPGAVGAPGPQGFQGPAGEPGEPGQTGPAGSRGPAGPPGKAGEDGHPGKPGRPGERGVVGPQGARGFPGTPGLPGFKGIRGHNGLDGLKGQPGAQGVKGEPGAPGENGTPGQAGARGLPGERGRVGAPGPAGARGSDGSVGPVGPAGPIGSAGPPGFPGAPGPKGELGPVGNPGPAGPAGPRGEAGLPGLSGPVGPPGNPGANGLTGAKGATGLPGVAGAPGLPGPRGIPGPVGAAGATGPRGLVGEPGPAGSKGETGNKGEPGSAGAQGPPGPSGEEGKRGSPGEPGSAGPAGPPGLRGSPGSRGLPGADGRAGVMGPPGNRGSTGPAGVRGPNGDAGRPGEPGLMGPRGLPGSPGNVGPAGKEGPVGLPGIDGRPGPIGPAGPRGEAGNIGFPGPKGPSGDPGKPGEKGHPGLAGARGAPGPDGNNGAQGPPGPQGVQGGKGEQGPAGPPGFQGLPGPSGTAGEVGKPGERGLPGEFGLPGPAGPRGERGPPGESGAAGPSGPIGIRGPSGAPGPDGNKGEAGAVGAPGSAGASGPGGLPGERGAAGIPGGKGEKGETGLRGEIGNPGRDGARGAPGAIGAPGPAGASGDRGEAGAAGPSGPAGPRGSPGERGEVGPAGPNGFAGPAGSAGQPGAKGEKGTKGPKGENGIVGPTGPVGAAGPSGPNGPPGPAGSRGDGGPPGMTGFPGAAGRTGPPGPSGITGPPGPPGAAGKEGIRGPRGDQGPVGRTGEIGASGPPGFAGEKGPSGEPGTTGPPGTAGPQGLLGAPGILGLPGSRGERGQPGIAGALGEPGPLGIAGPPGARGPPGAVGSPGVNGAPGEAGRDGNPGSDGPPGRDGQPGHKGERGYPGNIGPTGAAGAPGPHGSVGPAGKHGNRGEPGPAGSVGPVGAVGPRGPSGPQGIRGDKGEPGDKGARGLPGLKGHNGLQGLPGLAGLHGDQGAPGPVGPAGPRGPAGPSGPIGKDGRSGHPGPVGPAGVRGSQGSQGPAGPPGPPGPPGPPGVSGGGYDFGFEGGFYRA

Row | Kd | Binder
1 | 3.2 nM | Recombinant human versican G3 domain (domain or fragment) not shown
2 | 0.7 nM | Recombinant human versican isoform V3 (natural protein, Versican isoform V3, human; contains only the N-terminal G1 and C-terminal G3 domains and lacks the GAG domains; also called V3 isoform; source: bought: R&D Systems) not shown
3 | 0.9 nM | Recombinant human versican G1 domain (domain or fragment, Limits taken by convention: mature N-terminus through Ig-like V, Link 1 and Link 2 (Abcam ab152303 limits not given); tag omitted) not shown
